The text below walks through data of patent US20240269235A1.

Where two headings read alike, the source gives them in different places.

Holding throughout (experiment): cell-based or functional assay
The target of assay [1] is trimeric murine IL-2 receptor (IL-2Rα, IL-2Rβ, and IL-2Rγ) on CTLL-2 cells (murine) (UniProt P01590).
Assay [2] has the same target. This is another data set of the same source.
Assay [3] has as its target human IL-2Rα on Treg cells (CD3+, CD4+, CD25hi, FoxP3+) of human PBMC (human) (UniProt P01589).

Chain of trimeric murine IL-2 receptor (IL-2Rα, IL-2Rβ, and IL-2Rγ) on CTLL-2 cells (murine) (P01590 22-268, chain 1 of 3): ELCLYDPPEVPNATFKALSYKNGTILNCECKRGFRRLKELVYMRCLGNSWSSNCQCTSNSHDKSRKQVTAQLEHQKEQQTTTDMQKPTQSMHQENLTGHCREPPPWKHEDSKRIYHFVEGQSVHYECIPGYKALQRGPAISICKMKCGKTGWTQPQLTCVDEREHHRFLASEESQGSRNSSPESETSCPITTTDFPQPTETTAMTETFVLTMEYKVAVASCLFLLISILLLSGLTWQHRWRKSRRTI
Chain of trimeric murine IL-2 receptor (IL-2Rα, IL-2Rβ, and IL-2Rγ) on CTLL-2 cells (murine) (P16297 27-539, chain 2 of 3, further chain): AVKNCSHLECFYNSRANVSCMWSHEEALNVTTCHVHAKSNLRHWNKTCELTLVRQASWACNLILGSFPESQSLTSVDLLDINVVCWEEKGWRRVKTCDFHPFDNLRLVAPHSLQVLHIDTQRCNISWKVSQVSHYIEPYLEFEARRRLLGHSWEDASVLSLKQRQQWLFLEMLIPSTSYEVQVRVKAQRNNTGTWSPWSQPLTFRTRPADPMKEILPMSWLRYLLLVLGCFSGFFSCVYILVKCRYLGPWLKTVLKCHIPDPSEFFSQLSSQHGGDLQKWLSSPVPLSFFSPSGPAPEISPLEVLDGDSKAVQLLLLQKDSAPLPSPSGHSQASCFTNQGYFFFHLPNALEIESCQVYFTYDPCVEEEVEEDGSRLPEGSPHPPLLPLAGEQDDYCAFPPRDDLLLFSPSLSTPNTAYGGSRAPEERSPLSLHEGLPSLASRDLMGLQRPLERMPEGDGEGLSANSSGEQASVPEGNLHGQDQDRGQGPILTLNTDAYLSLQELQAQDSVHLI
Chain of trimeric murine IL-2 receptor (IL-2Rα, IL-2Rβ, and IL-2Rγ) on CTLL-2 cells (murine) (P34902 23-369, chain 3 of 3, further chain): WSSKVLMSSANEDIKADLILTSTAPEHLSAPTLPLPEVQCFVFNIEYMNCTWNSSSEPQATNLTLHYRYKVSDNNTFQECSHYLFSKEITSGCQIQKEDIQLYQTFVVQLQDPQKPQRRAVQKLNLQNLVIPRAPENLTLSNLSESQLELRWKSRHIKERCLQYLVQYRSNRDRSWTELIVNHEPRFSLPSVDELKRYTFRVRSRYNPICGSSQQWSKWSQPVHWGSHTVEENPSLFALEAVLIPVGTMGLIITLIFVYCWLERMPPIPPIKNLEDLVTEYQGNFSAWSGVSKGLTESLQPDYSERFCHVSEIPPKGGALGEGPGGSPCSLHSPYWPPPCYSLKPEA
Chain of human IL-2Rα on Treg cells (CD3+, CD4+, CD25hi, FoxP3+) of human PBMC (human) (P01589 22-272): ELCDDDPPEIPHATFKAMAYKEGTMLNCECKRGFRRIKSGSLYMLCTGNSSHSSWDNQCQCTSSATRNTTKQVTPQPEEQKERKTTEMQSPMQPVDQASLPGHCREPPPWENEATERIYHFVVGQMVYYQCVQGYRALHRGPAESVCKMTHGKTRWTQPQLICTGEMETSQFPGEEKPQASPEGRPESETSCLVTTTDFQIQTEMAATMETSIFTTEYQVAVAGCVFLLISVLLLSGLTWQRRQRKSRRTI

In the case of “Proleukin (from UniProt P60568 22-153) (ligand)”, the results for the STAT5 activation of CTLL-2 cells, EC50 in assay [1] and in assay [2] were 2 pM and 6 pM, respectively. In addition, the Treg EC50, STAT5 activation (PBMC STAT5 assay) in assay [3] was < 1 pM.
